The results in this text go back to patent publication US20250319216A1, “RADIOPHARMCEUTICAL COMPLEXES TARGETING PROSTATE-SPECIFIC MEMBRANE ANTIGEN AND ITS COMBINATIONS” (Bayer Aktiengesellschaft, priority 2022, published 2025).

The subject of series [1] is PSMA expression in 22Rv1 cells. Put plainly: PSMA protein expression by flow cytometry. The following applies: androgen-independent 22Rv1 cells, 0.08-5 μM darolutamide for 7 days. Type of series: cell-based. The protocol: (§1) The effect of darolutamide and 225Ac-pelgifatamab on PSMA mRNA and protein expression in vitro was studied in VCaP and 22Rv1 prostate cancer cells. To assess PSMA protein expression, VCaP and 22Rv1 cells were treated with 0.08-5 μM darolutamide for 7 days and PSMA expression was determined by flow cytometry using the murine PSMA-specific monoclonal antibody (mAb) J591 (prepared in-house). To assess FOLH1 gene expression, 22Rv1 cells were treated with 2 μM darolutamide and/or 0.15 kBq/mL 225Ac-pelgifatamab for 24 or 48 h. RNA was extracted with the RNeasy Plus Mini Kit (Qiagen), transcribed to cDNA using SuperScript IV VILO Master Mix (Invitrogen), and analyzed by qPCR.
(Flow cytometry measures light scatter and fluorescence of single cells or particles in a stream.)

The subject of series [2] is PSMA expression in VCaP cells. Put plainly: PSMA protein expression by flow cytometry. It is filed as cell-based. The following applies: androgen-dependent VCaP cells, 0.08-5 μM darolutamide for 7 days. The method, then:
as §1

Series [3] concerns PSMA expression in 22Rv1 tumors. Put plainly: In vivo PSMA protein expression in 22Rv1 tumors by flow cytometry. More on the design: species or system mice. The following applies: isolated 22Rv1 tumors, darolutamide 100 mg/kg BID p.o. for 18 days. The protocol: In vivo expression of PSMA protein was evaluated in 22Rv1 prostate tumor-bearing male nude (nu/nu) mice treated with vehicle or darolutamide (100 mg/kg, BID, p.o) for 18 days. 22Rv1 tumors were extracted (n=2) and dissociated tumor cells were analyzed by flow cytometry using the J591 antibody.

The subject of series [4] is 22Rv1 tumors. As to the kind of experiment: In vivo efficacy in 22Rv1 prostate cancer model. More on the design: species or system mice. The following applies: 22Rv1, day 16. The protocol: The in vivo antitumor efficacy of 225Ac-pelgi in combination with darolutamide was evaluated in the androgen-independent prostate cancer model 22Rv1.
The nature of series [5]: Size exclusion chromatography (SEC-UV) of Pelgifatamab TACs. To be noted: SEC-UV of TAC after radiolabeling. It is filed as physicochemical. The method, then: Purity of the TACs were determined by SEC-UV. The method separates higher aggregate, dimer and fragments from the ACC monomer. The separation was done using a Acquity UPLC Protein BEH SEC, 1.7 μm, 200 Å, 4.6×300 mm column operated at 30° C. The mobile phase was 170 mM Ammonium acetate and 300 mM NaCl containing 10% 2-propanol and 0.1 mM DCTA. The flowrate was 0.3 mL/min, and the ACCs were detected at UV 280 nm. The analysis was performed on an Agilent 1200 series HPLC with 35 μL injections.
(In general: SEC sorts molecules by how far they enter the pores of the column.)

The nature of series [6]: Radiochemical purity (RCP) of Pelgifatamab TACs by iTLC. Type of series: physicochemical. The following applies: for RCP (radiochemical purity): iTLC after Ac-225 labeling at 2 MBq/mg, macropa at room temperature, DOTA at 60° C., one hour. The protocol:
The mixture was incubated for one hour at room temperature for macropa-Pelgifatamab while the two DOTA-Pelgifatamab ACCs were incubated for one hour at 60° C. on a heating block. The RCP of the TACs was measured by instant thin layer chromatography using citrate buffer for elution, three replicates for each sample. […] The measurement of radioactivity was done with a Digital Gamma-Ray Spectrometer (DSPEC-50, Ortec). The activities were measured at least 6 hours after radiolabeling to allow daughter nuclides to be in equilibrium with Ac-225. […] Pelgifatamab-macropa and the PSMA binding antibody J591 conjugated with DOTA were both labeled with actinium-225. Labeling was performed at room temperature. J591-DOTA was also labeled at 60° C. Radiochemical purity was determined by instant thin-layer chromatography (iTLC). Labeled and free actinium-225 were counted in a germanium detector using actinium-225 specific energy lines. Actinium-225-labeling of pelgifatamab was efficient at room temperature as compared with actinium-225-labeling of the murine monoclonal PSMA antibody J591 (225Ac-J591, FIG. 8).

Series [7] deals with XRCC2. As to the kind of experiment: Gene expression by RT-qPCR in 22Rv1 cells. It is filed as cell-based. The following applies: 24 or 48 h.
In series [8] the test system is CDKN1A. As to the kind of experiment: Gene expression by RT-qPCR in 22Rv1 cells. Type of series: cell-based. To be noted: 24 or 48 h. In general terms: In qPCR the cycle at which signal appears reflects the starting amount.
Series [9] relates to PSMA-expressing prostate cancer xenograft model MDA PCa 2b. The following applies: 72-504 hours. The protocol: Biodistribution of Ac-225-macropa-Pelgifatamab was investigated in the PSMA-expressing prostate cancer xenograft model MDA PCa 2b. Female RJ: NMRI-Foxn1nu/nu mice were implanted with testosterone pellets subcutaneously and were inoculated with 1×10^6 MDA PCa 2b cells on the right flank. Animals were pre-treated with 200 μg/mouse unspecific IgG2a antibody 24 hours prior to hot dosing. Animals were treated with 300 kBq/kg Ac-225-macropa-Pelgifatamab IV at a total protein dose of 0.75 mg/kg. In a separate in vivo study the xenograft model MDA PCa 2b was treated with 250 kBq/kg Ac-225-DOTA-Pelgifatamab at a protein dose of 0.14 mg/kg. In both studies, animals were sacrificed 72, 168, 336, and 504 hours post treatment and 225Ac in blood, tumor, liver, kidney, spleen and femur was determined.

Series [10] concerns 22Rv1 cells. The following applies: 22Rv1 cells (printed 22R1), 5 days.
Protocol: (§2) Cells were treated for 5 days and subsequentially cell viability was determined using CellTiterGlo (Promega).
For series [11], the system named is KUCaP-1 tumors. As to the kind of experiment: In vivo antitumor efficacy in KUCaP-1 model. More on the design: species or system mice. An excerpt:
In a KUCaP-1 efficacy study, male scid/scid mice (8 weeks, 22 g, Janvier Labs) were implanted s.c. with 5×5×5 mm KUCaP-1 tumor fragments. When the tumors reached an average size of 220 mm^3, mice were randomized (n=9-10 mice/group), and the next day, treated with vehicle or a single i.v. injection of isotype control (300 kBq/kg, […] mg/kg). In addition, for one treatment group, tumors were allowed to reach a size of 470 mm^3, before treatment with a single dose of 300 kBq/kg ^225Ac-pelgi. The study was terminated on day 72 after tumor cell inoculation.

Series [12] concerns C4-2 cells. To be noted: 5 days.
Protocol: as §2
For series [13], the system named is LNCaP cells. The following applies: 5 days.
Protocol: as §2
Series [14] relates to C4-2 prostate cancer cells xenograft. As to the kind of experiment: In vivo efficacy study in C4-2 xenograft. To be noted: single dose IV 300 kBq/kg, total antibody dose 0.14 mg/kg. More on the design: species or system mice. The method, then: The compounds Ac-225-macropa-Pelgifatamab, Ac-225-DOTA-Pelgifatamab and isotype-macropa were labeled with 225Ac. Mice xenografted with C4-2 prostate cancer cells were treated with a single dose IV of 300 kBq/kg with a total antibody dose of 0.14 mg/kg. […] Body weight loss was less than 10% for all targeted treatment groups. Effects on the hematopoietic system were determined by WBC counts at the end of the experiment (FIG. 16 (C)).

In series [15] the test system is DU-145 cells. To be noted: PSMA negative DU-145 cells, 5 days.
Protocol: as §2
Series [16] deals with LNCaP prostate cancer model. As to the kind of experiment: In vivo antitumor efficacy in LNCaP model. More on the design: species or system mice. To be noted: total antibody dose 0.75 mg/kg. The protocol: Antitumor efficacy of 225Ac-pelgifatamab was assessed in the LNCaP prostate cancer model: Male SCID mice (6 weeks, 22 g, Janvier Labs) were implanted s.c. with testosterone pellets (12.5 mg, 4 mm) and 1-3 days later, inoculated s.c. with 5×10^6 LNCaP cells. When the tumors reached an average size of 160 mm^3, mice were randomized (n=10 mice/group), and two days later, treated with vehicle or a single i.v. dose of ^225Ac-pelgifatamab (70, 125, or 250 kBq/kg, total antibody dose 0.75 mg/kg). The study was terminated on day 112 after tumor cell inoculation.

For series [17], the system named is PC-3 cells. To be noted: PSMA negative PC-3 cells, 5 days.
Protocol: as §2
[18] abbreviates: 300 kBq/kg IV, 0.75 mg/kg total protein.

Marks after values point to notes of the source that are not given here. Some results are limits rather than exact numbers.

As to `CC(O)c1cc(C(=O)N[C@@H](C)Cn2ccc(-c3ccc(C#N)c(Cl)c3)n2)[nH]n1` (some centres unmarked) [Darolutamide, darolutamide], the “induction of PSMA expression” value in series [1] is > 2 fold; in series [2] it was “more than 10 fold”. In addition, the “increase in PSMA expression compared with vehicle” value in series [3] was found to be 50 fold. Besides, in [4] (100 mg/kg, BID, p.o.), the T/C is recorded as 0.78.
Ac-225-DOTA-Pelgifatamab CAR 5.7: in [5], the Aggregate is given as 18.4 Area % (UV), the Dimer is recorded as 3.0 Area % (UV) and the Monomer is 78.6 Area % (UV). For the same compound, the “RCP (radiochemical purity)” value in series [6] amounted to 99.2%.
Ac-225-DOTA-Pelgifatamab CAR 12.7: in [5], the Aggregate was 30.5 Area % (UV), the Dimer is on record as 4.8 Area % (UV) and the Monomer was 64.7 Area % (UV). In series [6], the “RCP (radiochemical purity)” value was 99.5%.
Take Ac-225-macropa-Pelgifatamab: the “expression of XRCC2” value in series [7] is given as “decreased”. The Dimer in series [5] is 0.5 Area % (UV). The Monomer in [5] was 99.5 Area % (UV). Also, the “RNA expression of CDKN1A” value in [8] is recorded as “increased”. Moreover, the “radioactivity in the liver compared with 225Ac-DOTA-Pelgifatamab” value in series [9] was “lower and over time decreasing radioactivity”. Also, the “uptake in the spleen compared with 225Ac-DOTA-Pelgifatamab” value in series [9] is “less uptake”. Besides, the “accumulation in normal organs” value in series [9] (setting [18]) was “generally low and transient”. The “tumor accumulation of 225Ac” value in series [9] (setting [18]) was “strong and persistent tumor accumulation”. Further, the “clearance from the bone compared with 225Ac-DOTA-Pelgifatamab” value in series [9] (femur) was “improved clearance”. Besides, the cytotoxicity result is “Strong cytotoxicity” in [10]; “Strong cytotoxicity” in series [12]; “Strong cytotoxicity” in series [13]; “little cytotoxicity” in series [15]; “little cytotoxicity” in series [17]. Also, the T/Cvolume ratio is given as 0.55 in series [11] (75 kBq/kg single dose), 0.44 in [11] (150 kBq/kg single dose) and 0.26 in series [11] (300 kBq/kg single dose). Besides, in series [11] (single dose 300 kBq/kg, tumors 470 mm^3 at treatment start), the “effect on large tumors” value is listed as “induced tumor regression”. The “antitumor activity compared with Ac-225-DOTA-Pelgifatamab” value in [14] is “higher antitumor activity”. In addition, the T/C in series [4] (75 kBq/kg, single dose, i.v.) was 0.71; in [4] (300 kBq/kg, single dose, i.v.), 0.41 ***. The “T/Cvolume (treatment/control) ratio” value in [16] (70 kBq/kg single dose i.v.), in [16] (125 kBq/kg single dose i.v.) and in series [16] (250 kBq/kg single dose i.v.) was 0.00 each time. Also, the “RCP (radiochemical purity)” value in [6] is given as 99.9%. In addition, the radiochemical purity in [6] (iTLC after radiolabeling at room temperature (FIG. 8)) turned out to be 100%.
